Results taken from the Human Domainome abundance scans (Beltran et al. 2025).
± gives the uncertainty stated by the source.

B1: Zinc finger homeobox protein 3, residues 2147 to 2202; numbered along this chain, Q15911 (parent)
chain: RPRTRITDDQLRVLRQYFDINNSPSEEQIKEMADKSGLPQKVIKHWFRNTLFKERQ

Variants of: B1
Test: abundance fitness (aPCA) (normalised: wild type 0, dead -1); higher = more abundant; growth selection in yeast, the domain comes from the species named
Settings: Homo sapiens

Point of comparison: RPRTRITDDQLRVLRQYFDINNSPSEEQIKEMADKSGLPQKVIKHWFRNTLPKERQ [F52P], abundance fitness -0.059 ± 0.18. Against it:
- RPRTRITDDQLRVLRQYFDINNSPSEEQIKEMADKSGLPQKVIKHWFNNTLFKERQ [R48N] — within error, 0.102 ± 0.21
- RPRTRITDDQLRVLRQYFDINNSPSEEQIKEMADKSGLPQKVIKHWFPNTLFKERQ [R48P] — lower, -0.461 ± 0.14
- RPRTRITDDQLRVLRQYFDINNSPSEEQIKEMADKSGLPQKVIKHWFSNTLFKERQ [R48S] — within error, -0.121 ± 0.09
- RPRTRITDDQLRVLRQYFDINNSPSEEQIKEMADKSGLPQKVIKHWFMNTLFKERQ [R48M] — within error, -0.06 ± 0.11
- RPRTRITDDQLRVLRQYFDINNSPSEEQIKEMADKSGLPQKVIKHWFANTLFKERQ [R48A] — within error, -0.042 ± 0.091
- RPRTRITDDQLRVLRQYFDINNSPSEEQIKEMADKSGLPQKVIKHWFFNTLFKERQ [R48F] — within error, -0.023 ± 0.16
- RPRTRITDDQLRVLRQYFDINNSPSEEQIKEMADKSGLPQKVIKHWFQNTLFKERQ [R48Q] — within error, 0.008 ± 0.12
- RPRTRITDDQLRVLRQYFDINNSPSEEQIKEMADKSGLPQKVIKHWFINTLFKERQ [R48I] — within error, -0.009 ± 0.14
- RPRTRITDDQLRVLRQYFDINNSPSEEQIKEMADKSGLPQKVIKHWFYNTLFKERQ [R48Y] — within error, -0.413 ± 0.21
- RPRTRITDDQLRVLRQYFDINNSPSEEQIKEMADKSGLPQKVIKHWFTNTLFKERQ [R48T] — within error, -0.07 ± 0.12
- RPRTRITDDQLRVLRQYFDINNSPSEEQIKEMADKSGLPQKVIKHWFWNTLFKERQ [R48W] — within error, -0.306 ± 0.089
- RPRTRITDDQLRVLRQYFDINNSPSEEQIKEMADKSGLPQKVIKHWFRNTLLKERQ [F52L] — within error, 0.026 ± 0.086
- RPRTRITDDQLRVLRQYFDINNSPSEEQIKEMADKSGLPQKVIKHWFRNTLMKERQ [F52M] — within error, 0.101 ± 0.12
- RPRTRITDDQLRVLRQYFDINNSPSEEQIKEMADKSGLPQKVIKHWFRNTLEKERQ [F52E] — within error, -0.015 ± 0.11
- RPRTRITDDQLRVLRQYFDINNSPSEEQIKEMADKSGLPQKVIKHWFRNTLSKERQ [F52S] — within error, -0.029 ± 0.095
- RPRTRITDDQLRVLRQYFDINNSPSEEQIKEMADKSGLPQKVIKHWFRNTLCKERQ [F52C] — within error, 0.01 ± 0.14
- RPRTRITDDQLRVLRQYFDINNSPSEEQIKEMADKSGLPQKVIKHWFRNTLAKERQ [F52A] — within error, 0.074 ± 0.083
- RPRTRITDDQLRVLRQYFDINNSPSEEQIKEMADKSGLPQKVIKHWFRNTLTKERQ [F52T] — within error, 0.181 ± 0.12
- RPRTRITDDQLRVLRQYFDINNSPSEEQIKEMADKSGLPQKVIKHWFRNTLNKERQ [F52N] — within error, 0.069 ± 0.16
- RPRTRITDDQLRVLRQYFDINNSPSEEQIKEMADKSGLPQKVIKHWFRNTLGKERQ [F52G] — within error, 0.09 ± 0.068
- RPRTRITDDQLRVLRQYFDINNSPSEEQIKEMADKSGLPQKVIKHWFRNTLWKERQ [F52W] — within error, -0.161 ± 0.1
- RPRTRITDDQLRVLRQYFDINNSPSEEQIKEMADKSGLPQKVIKHWFRNTLVKERQ [F52V] — within error, 0.05 ± 0.079
- RPRTRITDDQLRVLRQYFDINNSPSEEQIKEMADKSGLPQKVIKHWFRNTLKKERQ [F52K] — within error, 0.185 ± 0.13
- RPRTRITDDQLRVLRQYFDINNSPSEEQIKEMADKSGLPQKVIKHWFRNTLRKERQ [F52R] — within error, 0.148 ± 0.075
- RPRTRITDDQLRVLRQYFDINNSPSEEQIKEMADKSGLPQKVIKHWFRNTLIKERQ [F52I] — within error, -0.296 ± 0.16
- RPRTRITDDQLRVLRQYFDINNSPSEEQIKEMADKSGLPQKVIKHWFRNTLHKERQ [F52H] — within error, -0.189 ± 0.22
- RPRTRITDDQLRVLRQYFDINNSPSEEQIKEMADKSGLPQKVIKHWFRNTLDKERQ [F52D] — within error, -0.098 ± 0.2
- RPRTRITDDQLRVLRQYFDINNSPSEEQIKEMADKSGLPQKVIKHWFRHTLFKERQ [N49H] — within error, -0.451 ± 0.29
- RPRTRITDDQLRVLRQYFDINNSPSEEQIKEMADKSGLPQKVIKHWFRGTLFKERQ [N49G] — within error, -0.124 ± 0.096
- RPRTRITDDQLRVLRQYFDINNSPSEEQIKEMADKSGLPQKVIKHWFRVTLFKERQ [N49V] — within error, -0.053 ± 0.1
- RPRTRITDDQLRVLRQYFDINNSPSEEQIKEMADKSGLPQKVIKHWFRQTLFKERQ [N49Q] — within error, -0.075 ± 0.15
- RPRTRITDDQLRVLRQYFDINNSPSEEQIKEMADKSGLPQKVIKHWFRCTLFKERQ [N49C] — within error, 0.082 ± 0.13
- RPRTRITDDQLRVLRQYFDINNSPSEEQIKEMADKSGLPQKVIKHWFRATLFKERQ [N49A] — within error, -0.061 ± 0.11
- RPRTRITDDQLRVLRQYFDINNSPSEEQIKEMADKSGLPQKVIKHWFRWTLFKERQ [N49W] — within error, -0.014 ± 0.15
- RPRTRITDDQLRVLRQYFDINNSPSEEQIKEMADKSGLPQKVIKHWFRTTLFKERQ [N49T] — within error, -0.039 ± 0.12
- RPRTRITDDQLRVLRQYFDINNSPSEEQIKEMADKSGLPQKVIKHWFRMTLFKERQ [N49M] — within error, -0.093 ± 0.13
- RPRTRITDDQLRVLRQYFDINNSPSEEQIKEMADKSGLPQKVIKHWFRDTLFKERQ [N49D] — within error, 0.001 ± 0.15
- RPRTRITDDQLRVLRQYFDINNSPSEEQIKEMADKSGLPQKVIKHWFRKTLFKERQ [N49K] — within error, 0.06 ± 0.13
- RPRTRITDDQLRVLRQYFDINNSPSEEQIKEMADKSGLPQKVIKHWFRETLFKERQ [N49E] — within error, 0.153 ± 0.16
- RPRTRITDDQLRVLRQYFDINNSPSEEQIKEMADKSGLPQKVIKHWFRFTLFKERQ [N49F] — within error, -0.194 ± 0.16
- RPRTRITDDQLRVLRQYFDINNSPSEEQIKEMADKSGLPQKVIKHWFRLTLFKERQ [N49L] — within error, -0.117 ± 0.098
- RPRTRITDDQLRVLRQYFDINNSPSEEQIKEMADKSGLPQKVIKHWFRYTLFKERQ [N49Y] — within error, -0.145 ± 0.19
- RPRTRITDDQLRVLRQYFDINNSPSEEQIKEMADKSGLPQKVIKHWFRPTLFKERQ [N49P] — lower, -0.65 ± 0.19
- RPRTRITDDQLRVLRQYFDINNSPSEEQIKEMADKSGLPQKVIKHWFRRTLFKERQ [N49R] — within error, 0.02 ± 0.086
- RPRTRITDDQLRVLRQYFDINNSPSEEQIKEMADKSGLPQKVIKHWFRITLFKERQ [N49I] — within error, -0.236 ± 0.17
- RPRTRITDDQLRVLRQYFDINNSPSEEQIKEMADKSGLPQKVIKHWFRSTLFKERQ [N49S] — within error, -0.06 ± 0.11
